Measurements from patent US8034913B2, “Recombinantly modified plasmin” (Grifols Therapeutics Inc., priority 2004, dated 2011).
Where “and” joins values, the source holds several entries; their conditions need not be identical. Equal entries are not always repeated. Where two headings read alike, the source gives them in different places. Blank lines part the entries; values can stand above or below the molecule they belong to.

Legend:
urokinase [1] = biological target: T1, urokinase (Homo sapiens, UniProt P00749); settings: urokinase activation; Wohl et al. 1980; read-out: Km, literature value; cited from earlier work
urokinase [2] = biological target: T1, urokinase; assay: Kinetics of urokinase activation of plasminogen species (S-2251 coupled assay, method of Wohl et al.); format: biochemical; settings: 5.8 nM urokinase, 1 mM S-2251, 37° C., pH 7.5
Method: Increases in absorbance were monitored at 405 nm.
Activation of delta-plasminogen to delta-plasmin was complete within 3 minutes under these conditions. Very similar results were obtained with tPA and streptokinase.
Data were fit to a Michaelis-Menten kinetic model using Lineweaver-Burk analysis, resulting in the values below: […]

α2-antiplasmin [3] = biological target: T2, α2-antiplasmin (Homo sapiens, UniProt P08697); settings: literature value, Anonick et al. 1990; cited from earlier work
T2 sequence (P08697 40-491): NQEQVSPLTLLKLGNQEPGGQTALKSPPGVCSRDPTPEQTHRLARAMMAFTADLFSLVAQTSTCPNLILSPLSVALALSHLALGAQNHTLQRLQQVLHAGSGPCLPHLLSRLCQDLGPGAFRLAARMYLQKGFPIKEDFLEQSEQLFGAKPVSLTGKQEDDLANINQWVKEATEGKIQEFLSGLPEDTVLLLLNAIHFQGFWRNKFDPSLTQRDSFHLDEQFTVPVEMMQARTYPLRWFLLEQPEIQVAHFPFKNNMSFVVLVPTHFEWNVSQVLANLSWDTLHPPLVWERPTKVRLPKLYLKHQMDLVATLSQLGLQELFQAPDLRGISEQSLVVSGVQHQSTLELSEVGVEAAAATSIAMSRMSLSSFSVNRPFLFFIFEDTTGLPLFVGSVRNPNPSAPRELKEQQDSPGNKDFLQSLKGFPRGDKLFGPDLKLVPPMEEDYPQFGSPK

α2-macroglobulin = biological target: T3, α2-macroglobulin (Homo sapiens, UniProt P01023); assay: Rate of inhibition by α2-macroglobulin (method of Anonick et al.); format: biochemical; settings: 22° C. in PBS buffer, pH 7.4
T3 sequence (P01023 24-1474): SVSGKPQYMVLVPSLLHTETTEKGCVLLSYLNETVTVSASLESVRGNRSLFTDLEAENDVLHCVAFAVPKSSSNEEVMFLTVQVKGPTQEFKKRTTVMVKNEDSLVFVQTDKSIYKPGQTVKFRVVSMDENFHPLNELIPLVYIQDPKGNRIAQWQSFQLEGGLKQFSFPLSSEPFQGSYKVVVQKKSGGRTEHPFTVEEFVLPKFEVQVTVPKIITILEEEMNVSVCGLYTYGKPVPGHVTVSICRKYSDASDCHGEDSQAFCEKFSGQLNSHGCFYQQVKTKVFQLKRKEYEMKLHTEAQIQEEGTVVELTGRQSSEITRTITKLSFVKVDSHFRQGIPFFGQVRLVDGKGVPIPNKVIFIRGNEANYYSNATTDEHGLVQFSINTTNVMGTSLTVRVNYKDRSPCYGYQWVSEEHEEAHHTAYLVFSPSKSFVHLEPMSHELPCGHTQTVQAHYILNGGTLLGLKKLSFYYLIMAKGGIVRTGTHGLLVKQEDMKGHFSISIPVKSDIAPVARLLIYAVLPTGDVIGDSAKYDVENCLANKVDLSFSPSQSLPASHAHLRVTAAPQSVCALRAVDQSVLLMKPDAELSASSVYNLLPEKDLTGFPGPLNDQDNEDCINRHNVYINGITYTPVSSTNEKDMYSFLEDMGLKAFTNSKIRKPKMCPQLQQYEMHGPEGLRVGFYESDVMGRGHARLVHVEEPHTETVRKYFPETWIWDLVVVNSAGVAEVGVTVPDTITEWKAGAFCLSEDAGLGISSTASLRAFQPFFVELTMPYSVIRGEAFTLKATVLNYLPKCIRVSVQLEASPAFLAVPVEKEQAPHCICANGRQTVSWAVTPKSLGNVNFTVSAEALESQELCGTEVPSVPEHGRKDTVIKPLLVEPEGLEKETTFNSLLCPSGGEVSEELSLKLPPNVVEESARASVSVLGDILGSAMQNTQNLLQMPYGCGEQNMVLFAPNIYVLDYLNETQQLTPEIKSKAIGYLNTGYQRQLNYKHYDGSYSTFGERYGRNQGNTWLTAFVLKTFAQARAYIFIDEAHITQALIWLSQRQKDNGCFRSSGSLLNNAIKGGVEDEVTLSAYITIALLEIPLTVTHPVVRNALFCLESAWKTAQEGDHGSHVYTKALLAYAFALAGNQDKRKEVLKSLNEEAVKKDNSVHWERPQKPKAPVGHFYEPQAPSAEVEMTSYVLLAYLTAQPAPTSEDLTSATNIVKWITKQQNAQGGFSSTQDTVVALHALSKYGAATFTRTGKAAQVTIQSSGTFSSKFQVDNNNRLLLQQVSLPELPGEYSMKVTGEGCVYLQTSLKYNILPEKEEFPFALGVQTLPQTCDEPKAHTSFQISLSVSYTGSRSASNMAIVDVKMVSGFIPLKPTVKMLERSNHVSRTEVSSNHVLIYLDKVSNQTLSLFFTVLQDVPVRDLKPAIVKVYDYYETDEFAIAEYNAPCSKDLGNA
Method: The rate of inhibition of delta-plasmin by α2-macroglobulin was measured using the method of Anonick et al. (Anonick, P., et al., Thrombosis Res. 59:449-462 (1990)).
(§1) Literature values are taken from Anonick, et al., Thrombosis Res. 59:449 (1990). All rates were measured according to the methods published in Anonick, et al.

[4] = Amidolytic activity, steady-state kinetics with substrate S-2251; format: biochemical; settings: S-2251, PBS buffer, pH 7.4, 25° C.; for kcat: delta-plasmin corrected for percent active sites
[5] = test system: retracted whole human blood clots; assay: In vitro model of catheter-assisted thrombolysis, lysis of retracted whole-blood clots; settings: single 1-ml dose injected into clot, 60 min at 37° C.; delta-plasmin 0.44 mg, plasmin 1.0 mg (equimolar)
Method: FIG. 11 is a graphic representation of delta-plasmin-induced lysis of retracted whole-blood clots. Each clot (0.8×7 cm) was injected with a 1 ml volume of vehicle (acidified saline, pH 3.6), plasmin (1.0 mg/ml), or delta-plasmin (0.44 mg/ml), and clot dissolution was allowed to proceed at 37° C. for 1 hour.
The thrombolytic efficacy of delta-plasmin was tested in an in vitro model of catheter-assisted thrombolysis (Novokhatny, V. et al., J Thromb Haemost., 1(5):1034-41 (2003), incorporated by reference) using the following experimental protocol.
Fresh whole human blood was collected into 20×0.95 cm glass tubes and allowed to clot spontaneously without additives. Tubes were incubated for 20 hr at 37° C. to allow full retraction. Retracted clots were separated from serum using USA Standard testing sieves D16 with 14 mesh, and their weights were determined. […]
Single 1-ml doses of acidified saline, plasmin, or delta-plasmin were injected into the clot using a syringe. […] After the incubation, the clots were placed again on the sieve to remove the liquefied material and the weight of the digested clots was measured. The extent of clot lysis was determined from the difference between the initial clot weight and the weight of residual clot and was expressed as a percent of clot weight reduction.

α2-antiplasmin [6] = biological target: T2, α2-antiplasmin; assay: Rate of inhibition by α2-antiplasmin (method of Wiman and Collen, S-2251 activity at time points); format: biochemical; settings: 22° C. in PBS buffer, pH 7.4
Method: as §1

Molecule: Plasminogen: human plasminogen, single-chain protein containing 791 amino acid residues
Km (urokinase [1]): 1.7 µM
Km (urokinase [2]): 1.2 µM
kcat (urokinase [2]): 0.0383 ± 0.005 s⁻¹

inhibition rate by α2-macroglobulin (α2-macroglobulin): 6.5 +/− 0.5 × 10^5 M^−1s^−1
B1: plasmin: two-chain, disulfide-linked serine protease from activation of plasminogen (antibody)
heavy: EPLDDYVNTQGASLFSVTKKQLGAGSIEECAAKCEEDEEFTCRAFQYHSKEQQCVIMAENRKSSIIIRMRDVVLFEKKVYLSECKTGNGKNYRGTMSKTKNGITCQKWSSTSPHRPRFSPATHPSEGLEENYCRNPDNDPQGPWCYTTDPEKRYDYCDILECEEECMHCSGENYDGKISKTMSGLECQAWDSQSPHAHGYIPSKFPNKNLKKNYCRNPDRELRPWCFTTDPNKRWELCDIPRCTTPPPSSGPTYQCLKGTGENYRGNVAVTVSGHTCQHWSAQTPHTHNRTPENFPCKNLDENYCRNPDGKRAPWCHTTNSQVRWEYCKIPSCDSSPVSTEQLAPTAPPELTPVVQDCYHGDGQSYRGTSSTTTTGKKCQSWSSMTPHRHQKTPENYPNAGLTMNYCRNPDADKGPWCFTTDPSVRWEYCNLKKCSGTEASVVAPPPVVLLPDVETPSEEDCMFGNGKGYRGKRATTVTGTPCQDWAAQEPHRHSIFTPETNPRAGLEKNYCRNPDGDVGGPWCYTTNPRKLYDYCDVPQCAAPSFDCGKPQVEPKKCPGR
light: VVGGCVAHPHSWPWQVSLRTRFGMHFCGGTLISPEWVLTAAHCLEKSPRPSSYKVILGAHQEVNLEPHVQEIEVSRLFLEPTRKDIALLKLSSPAVITDKVIPACLPSPNYVVADRTECFITGWGETQGTFGAGLLKEAQLPVIENKVCNRYEFLNGRVQSTELCAGHLAGGTDSCQGDSGGPLVCFEKDKYILQGVTSWGLGCARPNKPGVYVRVSRFVTWIEGVMRNN
inhibition rate by α2-antiplasmin (lit.) (α2-antiplasmin [3]): 2.5×10^7 M^−1s^−1 and 2.5 +/− 0.5 × 10^7 M^−1s^−1
Km [4]: 193 µM
kcat [4]: 12.7 ± 0.383 s⁻¹
kcat ([4]; listed as full-length plasmin): 12.7 ± 0.383 s⁻¹
clot weight reduction [5]: 50%

inhibition rate by α2-macroglobulin (α2-macroglobulin): 7.5 +/− 0.3 × 10^5 M^−1s^−1
B2: mini-plasmin: activated mini-plasminogen (Val443-Asn791), fifth kringle and serine protease domain (K5-SP) (protein)
chain 1: VAPPPVVLLPDVETPSEEDCMFGNGKGYRGKRATTVTGTPCQDWAAQEPHRHSIFTPETNPRAGLEKNYCRNPDGDVGGPWCYTTNPRKLYDYCDVPQCAAPSFDCGKPQVEPKKCPGR
chain 2: VVGGCVAHPHSWPWQVSLRTRFGMHFCGGTLISPEWVLTAAHCLEKSPRPSSYKVILGAHQEVNLEPHVQEIEVSRLFLEPTRKDIALLKLSSPAVITDKVIPACLPSPNYVVADRTECFITGWGETQGTFGAGLLKEAQLPVIENKVCNRYEFLNGRVQSTELCAGHLAGGTDSCQGDSGGPLVCFEKDKYILQGVTSWGLGCARPNKPGVYVRVSRFVTWIEGVMRNN
inhibition rate by α2-antiplasmin (α2-antiplasmin [6]): 2.4×10^5 M^−1s^−1 and 2.4 +/− 0.5 × 10^5 M^−1s^−1
Km [4]: 160 µM
kcat [4]: 12.8 ± 1.17 s⁻¹

inhibition rate by α2-macroglobulin (α2-macroglobulin): 7.8 +/− 0.6 × 10^5 M^−1s^−1
B3: micro-plasmin: plasmin species lacking all five kringles (protein)
chain: APSFDCGKPQVEPKKCPGRVVGGCVAHPHSWPWQVSLRTRFGMHFCGGTLISPEWVLTAAHCLEKSPRPSSYKVILGAHQEVNLEPHVQEIEVSRLFLEPTRKDIALLKLSSPAVITDKVIPACLPSPNYVVADRTECFITGWGETQGTFGAGLLKEAQLPVIENKVCNRYEFLNGRVQSTELCAGHLAGGTDSCQGDSGGPLVCFEKDKYILQGVTSWGLGCARPNKPGVYVRVSRFVTWIEGVMRNN
inhibition rate by α2-antiplasmin (α2-antiplasmin [6]): 1.8×10^5 M^−1s^−1 and 3.1×10^5 M^−1s^−1 and 1.8 +/− 0.2 × 10^5 M^−1s^−1
Km [4]: 145 µM
kcat [4]: 13.2 ± 0.4 s⁻¹
